Measurements: patent US20170260257A1
Values joined by “and” are separate entries in the source; they are usually repeats but may differ in a detail not shown here. Equal values may be shown once.

Molecular target: BSA (UniProt P02769)
Assay: sandwich ELISA: plate coated with the antibody, BSA as negative sample, detection with sheep anti-HBsAg/peroxidase

Chain of BSA (P02769 25-607 limits assumed): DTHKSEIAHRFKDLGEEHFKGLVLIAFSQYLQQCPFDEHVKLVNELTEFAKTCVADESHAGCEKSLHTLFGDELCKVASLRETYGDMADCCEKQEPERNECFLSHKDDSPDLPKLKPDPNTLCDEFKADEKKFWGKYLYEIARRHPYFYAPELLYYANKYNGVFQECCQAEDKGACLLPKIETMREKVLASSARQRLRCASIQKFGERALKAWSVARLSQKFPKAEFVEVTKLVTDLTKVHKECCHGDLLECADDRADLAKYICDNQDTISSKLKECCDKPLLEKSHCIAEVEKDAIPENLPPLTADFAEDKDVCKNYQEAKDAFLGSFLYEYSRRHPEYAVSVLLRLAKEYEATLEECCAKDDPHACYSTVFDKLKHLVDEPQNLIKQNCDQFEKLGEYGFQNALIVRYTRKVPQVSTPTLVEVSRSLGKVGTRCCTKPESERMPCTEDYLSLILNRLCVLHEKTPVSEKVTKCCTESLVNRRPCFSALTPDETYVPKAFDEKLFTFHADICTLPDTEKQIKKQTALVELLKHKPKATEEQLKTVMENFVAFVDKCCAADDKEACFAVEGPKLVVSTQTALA

B1: the antibody of the present invention comprising a heavy-chain variable region having amino acid sequence of SEQ ID NO: 2 and a light-chain variable region … (antibody, V domains shown)
VH: EVQLVESGGGLVKPGGSLRLSCSASGFSLTKYKMTWVRQAPGKGLEWVSSISSTSRDIDYADSVKGRFTISRDNAKNSLFLQMSSLRVDDTAVYYCTRDGWLWGWDVRSNYYYNALDVWGQGTTVTVSS
VL: DIVVTQSPSSLSASVGDRVTITCRASQGIYNSIAWYQQKPGKAPKLLLYSTSTLLSGVPSRFSGSGSGTDYTLTITNLQPEDFATYYCQQYFVTPETFGQGTKLEIKR
In the case of B1, the A450 is reported as 0.251 A450 and 0.263 A450.
